The data set concerns the molecule itself. In words: self-association (homodimerization), observed with NMR (FIG. 3A-3C).

B1: HP-7 polypeptide (SEQ ID NO: 7) (peptide)
chain: GEIWKQHEDALQKFEEALNQFEDLKQLGGSGCGSGGEIWKQHEDALQKFEEALNQFEDLKQL
notes: also called free HP-7
Take B1: the binding result is listed as “binds”.

(Values after US20120034671A1 (RESEARCH FOUNDATION OF THE CITY UNIVERSITY OF NEW YORK, published 2012).)
